Values of other authors, collected in article PMC3433420.
Where two headings read alike, the source gives them in different places.

Tests used:
Conditions in all cases: cited from earlier work
GRB7 (Homo sapiens) [1] = molecular target: GRB7 (Homo sapiens) (UniProt Q14451)
PLCG1-C (Homo sapiens) = PLCG1-C (Homo sapiens) (UniProt P19174)
RASA1-N (Homo sapiens) [2] = molecular target: RASA1-N (Homo sapiens) (UniProt P20936)
VAV2 (Homo sapiens) [3] = molecular target: VAV2 (Homo sapiens) (UniProt P52735)
Chain of VAV2 (Homo sapiens) (P52735 668-772): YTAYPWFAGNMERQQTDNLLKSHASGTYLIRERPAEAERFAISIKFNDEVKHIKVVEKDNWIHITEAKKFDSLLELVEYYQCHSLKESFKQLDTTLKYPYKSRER

SYK-NC (Homo sapiens) [4] = molecular target: SYK-NC (Homo sapiens) (UniProt P43405)
PIK3R3-NC (Homo sapiens) [5] = molecular target: PIK3R3-NC (Homo sapiens) (UniProt Q92569)
PLCG1-NC (Homo sapiens) = PLCG1-NC (Homo sapiens) (UniProt P19174)
Chain of PLCG1-NC (Homo sapiens) (P19174 545-761): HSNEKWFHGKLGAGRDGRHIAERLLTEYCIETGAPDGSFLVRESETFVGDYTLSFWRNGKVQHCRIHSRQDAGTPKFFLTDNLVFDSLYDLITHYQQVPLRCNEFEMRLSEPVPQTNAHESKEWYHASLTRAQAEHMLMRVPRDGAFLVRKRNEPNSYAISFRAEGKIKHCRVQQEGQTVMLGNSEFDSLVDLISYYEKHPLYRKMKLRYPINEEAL

SHC1-PTB (Homo sapiens) [6] = molecular target: SHC1-PTB (Homo sapiens) (UniProt P29353)
Chain of SHC1-PTB (Homo sapiens) (P29353 483-583): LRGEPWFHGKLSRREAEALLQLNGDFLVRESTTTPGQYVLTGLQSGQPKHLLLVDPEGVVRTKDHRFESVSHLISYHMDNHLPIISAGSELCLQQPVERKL

ABL2 (Homo sapiens) [7] = molecular target: ABL2 (Homo sapiens) (UniProt P42684)
Chain of ABL2 (Homo sapiens) (P42684 168-268): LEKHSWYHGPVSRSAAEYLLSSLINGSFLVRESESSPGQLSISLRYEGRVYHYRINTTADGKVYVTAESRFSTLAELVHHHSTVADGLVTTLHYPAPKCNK

VAV2 (Homo sapiens) [8] = molecular target: VAV2 (Homo sapiens) (UniProt P52735); remark: listed apart in the source
SLA (Homo sapiens) [9] = molecular target: SLA (Homo sapiens) (UniProt Q13239)
Chain of SLA (Homo sapiens) (Q13239 79-180): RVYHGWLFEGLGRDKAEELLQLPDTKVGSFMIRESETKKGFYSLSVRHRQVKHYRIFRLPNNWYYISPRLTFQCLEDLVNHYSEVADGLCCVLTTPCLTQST

PLCG2-NC (Homo sapiens) [10] = molecular target: PLCG2-NC (Homo sapiens) (UniProt P16885)
Chain of PLCG2-NC (Homo sapiens) (P16885 527-740): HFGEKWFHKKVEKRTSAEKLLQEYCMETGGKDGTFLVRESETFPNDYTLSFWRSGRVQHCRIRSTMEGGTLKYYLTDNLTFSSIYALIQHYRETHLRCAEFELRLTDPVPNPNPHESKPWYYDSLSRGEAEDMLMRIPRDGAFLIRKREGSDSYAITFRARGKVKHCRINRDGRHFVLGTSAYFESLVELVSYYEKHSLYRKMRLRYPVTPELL

PIK3R3-NC (Homo sapiens) [11] = molecular target: PIK3R3-NC (Homo sapiens) (UniProt Q92569); remark: listed apart in the source
RASA1-N (Homo sapiens) [12] = molecular target: RASA1-N (Homo sapiens) (UniProt P20936); remark: listed apart in the source
SLA (Homo sapiens) [13] = molecular target: SLA (Homo sapiens) (UniProt Q13239); remark: listed apart in the source
RASA1-NC (Homo sapiens) = RASA1-NC (Homo sapiens) (UniProt P20936)
Chain of RASA1-NC (Homo sapiens) (P20936 176-446): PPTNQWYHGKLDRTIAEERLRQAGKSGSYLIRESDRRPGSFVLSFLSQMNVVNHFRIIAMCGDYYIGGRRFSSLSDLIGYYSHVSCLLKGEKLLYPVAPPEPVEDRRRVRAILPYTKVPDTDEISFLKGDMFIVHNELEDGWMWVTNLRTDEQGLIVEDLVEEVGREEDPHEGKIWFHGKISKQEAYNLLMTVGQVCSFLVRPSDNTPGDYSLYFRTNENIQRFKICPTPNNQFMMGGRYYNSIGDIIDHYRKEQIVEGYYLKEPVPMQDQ

ABL2 (Homo sapiens) [14] = molecular target: ABL2 (Homo sapiens) (UniProt P42684); remark: listed apart in the source
GRB7 (Homo sapiens) [15] = molecular target: GRB7 (Homo sapiens) (UniProt Q14451); remark: listed apart in the source
SOCS5 (Homo sapiens) = SOCS5 (Homo sapiens) (UniProt O75159)
Chain of SOCS5 (Homo sapiens) (O75159 376-481): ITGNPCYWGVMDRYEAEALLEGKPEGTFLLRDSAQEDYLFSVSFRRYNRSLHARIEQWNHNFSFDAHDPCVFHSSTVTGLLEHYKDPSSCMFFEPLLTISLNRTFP

VAV3 (Homo sapiens) = VAV3 (Homo sapiens) (UniProt Q9UKW4)
Chain of VAV3 (Homo sapiens) (Q9UKW4 667-771): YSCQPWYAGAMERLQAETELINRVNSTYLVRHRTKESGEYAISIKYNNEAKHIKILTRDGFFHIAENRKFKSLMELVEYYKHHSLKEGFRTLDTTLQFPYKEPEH

FGR (Homo sapiens) [16] = molecular target: FGR (Homo sapiens) (UniProt P09769)
NCK2 (Homo sapiens) [17] = molecular target: NCK2 (Homo sapiens) (UniProt O43639)
Chain of NCK2 (Homo sapiens) (O43639 280-380): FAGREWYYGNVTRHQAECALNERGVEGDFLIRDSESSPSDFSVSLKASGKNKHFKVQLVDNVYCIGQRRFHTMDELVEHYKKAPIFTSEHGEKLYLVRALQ

PIK3R3-NC (Homo sapiens) [18] = molecular target: PIK3R3-NC (Homo sapiens) (UniProt Q92569); remark: listed apart in the source
ABL2 (Homo sapiens) [19] = molecular target: ABL2 (Homo sapiens) (UniProt P42684); remark: listed apart in the source
PIK3R2-N (Homo sapiens) [20] = molecular target: PIK3R2-N (Homo sapiens) (UniProt O00459)
Chain of PIK3R2-N (Homo sapiens) (O00459 325-721): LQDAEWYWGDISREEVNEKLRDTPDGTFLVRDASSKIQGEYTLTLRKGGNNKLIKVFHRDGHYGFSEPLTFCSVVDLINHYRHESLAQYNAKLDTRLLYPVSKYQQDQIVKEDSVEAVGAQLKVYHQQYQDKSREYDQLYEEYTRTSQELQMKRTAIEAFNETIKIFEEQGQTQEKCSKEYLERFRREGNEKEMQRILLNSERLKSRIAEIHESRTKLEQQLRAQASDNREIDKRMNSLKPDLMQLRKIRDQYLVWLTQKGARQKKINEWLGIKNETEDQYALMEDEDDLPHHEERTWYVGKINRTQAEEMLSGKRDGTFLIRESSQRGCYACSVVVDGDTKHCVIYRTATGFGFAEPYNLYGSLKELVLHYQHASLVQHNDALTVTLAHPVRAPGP

NCK2 (Homo sapiens) [21] = molecular target: NCK2 (Homo sapiens) (UniProt O43639); remark: listed apart in the source
SHC1-PTB (Homo sapiens) [22] = molecular target: SHC1-PTB (Homo sapiens) (UniProt P29353); remark: listed apart in the source
ABL2 (Homo sapiens) [23] = molecular target: ABL2 (Homo sapiens) (UniProt P42684); remark: listed apart in the source
SYK-NC (Homo sapiens) [24] = molecular target: SYK-NC (Homo sapiens) (UniProt P43405); remark: listed apart in the source
ITK (Homo sapiens) = ITK (Homo sapiens) (UniProt Q08881)
Chain of ITK (Homo sapiens) (Q08881 234-343): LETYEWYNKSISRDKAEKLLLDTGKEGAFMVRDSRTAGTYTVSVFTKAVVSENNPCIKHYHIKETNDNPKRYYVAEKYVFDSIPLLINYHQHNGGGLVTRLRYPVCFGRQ

PIK3R1-NC (Homo sapiens) [25] = molecular target: PIK3R1-NC (Homo sapiens) (UniProt P27986)
Chain of PIK3R1-NC (Homo sapiens) (P27986 328-723): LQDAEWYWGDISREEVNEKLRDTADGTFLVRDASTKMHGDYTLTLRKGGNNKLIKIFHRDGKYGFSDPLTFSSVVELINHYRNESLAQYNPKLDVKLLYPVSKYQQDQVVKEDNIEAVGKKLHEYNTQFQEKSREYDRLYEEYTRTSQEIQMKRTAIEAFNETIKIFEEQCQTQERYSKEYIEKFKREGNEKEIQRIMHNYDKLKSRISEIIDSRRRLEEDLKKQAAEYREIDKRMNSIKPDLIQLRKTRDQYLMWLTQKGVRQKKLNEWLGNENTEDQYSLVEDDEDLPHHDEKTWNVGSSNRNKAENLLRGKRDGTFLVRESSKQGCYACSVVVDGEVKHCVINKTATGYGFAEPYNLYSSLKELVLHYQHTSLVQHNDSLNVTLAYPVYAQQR

YES1 (Homo sapiens) [26] = molecular target: YES1 (Homo sapiens) (UniProt P07947)
Chain of YES1 (Homo sapiens) (P07947 153-260): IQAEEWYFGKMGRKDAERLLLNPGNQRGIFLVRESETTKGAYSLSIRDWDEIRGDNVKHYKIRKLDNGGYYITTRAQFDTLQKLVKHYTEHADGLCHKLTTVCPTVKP

PIK3R3-NC (Homo sapiens) [27] = molecular target: PIK3R3-NC (Homo sapiens) (UniProt Q92569); remark: listed apart in the source
VAV2 (Homo sapiens) [28] = molecular target: VAV2 (Homo sapiens) (UniProt P52735); remark: listed apart in the source
PIK3R3-N (Homo sapiens) [29] = molecular target: PIK3R3-N (Homo sapiens) (UniProt Q92569)
SHC1-PTB (Homo sapiens) [30] = molecular target: SHC1-PTB (Homo sapiens) (UniProt P29353); remark: listed apart in the source
SYK-C (Homo sapiens) = SYK-C (Homo sapiens) (UniProt P43405)
RASA1-N (Homo sapiens) [31] = molecular target: RASA1-N (Homo sapiens) (UniProt P20936); remark: listed apart in the source
GRB2 (Homo sapiens) = GRB2 (Homo sapiens) (UniProt P62993)
Chain of GRB2 (Homo sapiens) (P62993 55-157): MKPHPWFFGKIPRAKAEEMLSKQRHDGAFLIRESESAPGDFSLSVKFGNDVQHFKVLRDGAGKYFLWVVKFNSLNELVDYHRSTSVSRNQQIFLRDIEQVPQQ

VAV1 (Homo sapiens) = VAV1 (Homo sapiens) (UniProt P15498)
Chain of VAV1 (Homo sapiens) (P15498 666-770): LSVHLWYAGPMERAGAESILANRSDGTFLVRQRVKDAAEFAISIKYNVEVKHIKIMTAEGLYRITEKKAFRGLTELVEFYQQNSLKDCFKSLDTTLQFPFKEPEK

SYK-NC (Homo sapiens) [32] = molecular target: SYK-NC (Homo sapiens) (UniProt P43405); remark: listed apart in the source
CRKL (Homo sapiens) = CRKL (Homo sapiens) (UniProt P46109)
Chain of CRKL (Homo sapiens) (P46109 9-107): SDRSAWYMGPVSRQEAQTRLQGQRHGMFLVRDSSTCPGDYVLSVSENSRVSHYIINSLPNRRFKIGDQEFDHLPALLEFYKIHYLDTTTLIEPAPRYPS

VAV2 (Homo sapiens) [33] = molecular target: VAV2 (Homo sapiens) (UniProt P52735); remark: listed apart in the source
PLCG2-NC (Homo sapiens) [34] = molecular target: PLCG2-NC (Homo sapiens) (UniProt P16885); remark: listed apart in the source
RASA1-N (Homo sapiens) [35] = molecular target: RASA1-N (Homo sapiens) (UniProt P20936); remark: listed apart in the source
PIK3R3-NC (Homo sapiens) [36] = molecular target: PIK3R3-NC (Homo sapiens) (UniProt Q92569); remark: listed apart in the source
ABL2 (Homo sapiens) [37] = molecular target: ABL2 (Homo sapiens) (UniProt P42684); remark: listed apart in the source
FGR (Homo sapiens) [38] = molecular target: FGR (Homo sapiens) (UniProt P09769); remark: listed apart in the source
PIK3R1-NC (Homo sapiens) [39] = molecular target: PIK3R1-NC (Homo sapiens) (UniProt P27986); remark: listed apart in the source
YES1 (Homo sapiens) [40] = molecular target: YES1 (Homo sapiens) (UniProt P07947); remark: listed apart in the source
PIK3R2-N (Homo sapiens) [41] = molecular target: PIK3R2-N (Homo sapiens) (UniProt O00459); remark: listed apart in the source
BLK (Homo sapiens) = BLK (Homo sapiens) (UniProt P51451)
Chain of BLK (Homo sapiens) (P51451 119-225): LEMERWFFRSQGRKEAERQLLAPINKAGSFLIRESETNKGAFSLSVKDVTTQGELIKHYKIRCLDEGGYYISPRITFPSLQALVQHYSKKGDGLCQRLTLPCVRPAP

ZAP70-NC (Homo sapiens) = ZAP70-NC (Homo sapiens) (UniProt P43403)
Chain of ZAP70-NC (Homo sapiens) (P43403 5-259): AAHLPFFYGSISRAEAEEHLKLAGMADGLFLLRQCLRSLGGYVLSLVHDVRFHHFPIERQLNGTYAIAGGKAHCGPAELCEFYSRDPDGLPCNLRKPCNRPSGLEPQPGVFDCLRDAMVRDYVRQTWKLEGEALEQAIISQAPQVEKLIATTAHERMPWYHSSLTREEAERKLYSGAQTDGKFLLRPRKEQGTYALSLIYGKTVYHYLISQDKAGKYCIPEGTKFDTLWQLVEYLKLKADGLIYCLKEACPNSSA

RASA1-N (Homo sapiens) [42] = molecular target: RASA1-N (Homo sapiens) (UniProt P20936); remark: listed apart in the source
PIK3R3-N (Homo sapiens) [43] = molecular target: PIK3R3-N (Homo sapiens) (UniProt Q92569); remark: listed apart in the source

Chain of RASA1-N (Homo sapiens) (P20936 176-446): as the sequence (P20936 176-446) above
Chain of GRB7 (Homo sapiens) (Q14451 426-532): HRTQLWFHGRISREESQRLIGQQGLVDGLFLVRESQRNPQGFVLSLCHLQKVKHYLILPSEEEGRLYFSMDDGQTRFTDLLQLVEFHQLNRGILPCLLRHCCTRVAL
Chain of PLCG1-C (Homo sapiens) (P19174 545-761): as the sequence (P19174 545-761) above

For …pYLQEYSTKd, the apparent Kd (screen) (GRB7 (Homo sapiens) [1]) is given as 2000 nM, the apparent Kd (screen) (PLCG1-C (Homo sapiens)) is given as 2000 nM and the apparent Kd (screen) (RASA1-N (Homo sapiens) [2]) is given as 2000 nM. The apparent Kd (screen) (VAV2 (Homo sapiens) [3]) was 769 nM, the apparent Kd (screen) (SYK-NC (Homo sapiens) [4]) was 2000 nM and the apparent Kd (screen) (PIK3R3-NC (Homo sapiens) [5]) was 2000 nM. The apparent Kd (screen) (PLCG1-NC (Homo sapiens)) was 2000 nM, the apparent Kd (screen) (SHC1-PTB (Homo sapiens) [6]) was 2000 nM and the apparent Kd (screen) (ABL2 (Homo sapiens) [7]) was 883 nM. For the same substance, the apparent Kd (screen) (VAV2 (Homo sapiens) [8]) was 2000 nM and the apparent Kd (screen) (SLA (Homo sapiens) [9]) was 2000 nM.

For …pYMNRQRDG, the apparent Kd (screen) (PLCG2-NC (Homo sapiens) [10]) is listed as 2000 nM, the apparent Kd (screen) (PIK3R3-NC (Homo sapiens) [11]) is listed as 2000 nM and the apparent Kd (screen) (RASA1-N (Homo sapiens) [12]) is listed as 1210 nM. For the same substance, the apparent Kd (screen) (SLA (Homo sapiens) [13]) was 2000 nM, the apparent Kd (screen) (RASA1-NC (Homo sapiens)) was 2000 nM and the apparent Kd (screen) (ABL2 (Homo sapiens) [14]) was 1960 nM. For the same substance, the apparent Kd (screen) (GRB7 (Homo sapiens) [15]) was 2000 nM and the apparent Kd (screen) (SOCS5 (Homo sapiens)) was 2000 nM.

For …pYLTPQGGA, the apparent Kd (screen) (VAV3 (Homo sapiens)) is listed as 596 nM, the apparent Kd (screen) (FGR (Homo sapiens) [16]) is listed as 1680 nM and the apparent Kd (screen) (NCK2 (Homo sapiens) [17]) is listed as 1100 nM. For the same substance, the apparent Kd (screen) (PIK3R3-NC (Homo sapiens) [18]) was 1340 nM, the apparent Kd (screen) (ABL2 (Homo sapiens) [19]) was 476 nM and the apparent Kd (screen) (PIK3R2-N (Homo sapiens) [20]) was 1280 nM. For the same substance, the apparent Kd (screen) (NCK2 (Homo sapiens) [21]) was 759 nM, the apparent Kd (screen) (SHC1-PTB (Homo sapiens) [22]) was 153 nM and the apparent Kd (screen) (ABL2 (Homo sapiens) [23]) was 368 nM. The apparent Kd (screen) (SYK-NC (Homo sapiens) [24]) was 1330 nM, the apparent Kd (screen) (ITK (Homo sapiens)) was 767 nM and the apparent Kd (screen) (PIK3R1-NC (Homo sapiens) [25]) was 226 nM. The apparent Kd (screen) (YES1 (Homo sapiens) [26]) was 1190 nM, the apparent Kd (screen) (PIK3R3-NC (Homo sapiens) [27]) was 950 nM and the apparent Kd (screen) (VAV2 (Homo sapiens) [28]) was 226 nM. The apparent Kd (screen) (PIK3R3-N (Homo sapiens) [29]) was 1380 nM, the apparent Kd (screen) (SHC1-PTB (Homo sapiens) [30]) was 346 nM and the apparent Kd (screen) (SYK-C (Homo sapiens)) was 1240 nM. For the same substance, the apparent Kd (screen) (RASA1-N (Homo sapiens) [31]) was 671 nM, the apparent Kd (screen) (GRB2 (Homo sapiens)) was 1330 nM and the apparent Kd (screen) (VAV1 (Homo sapiens)) was 1240 nM. For the same substance, the apparent Kd (screen) (SYK-NC (Homo sapiens) [32]) was 1150 nM, the apparent Kd (screen) (CRKL (Homo sapiens)) was 1440 nM and the apparent Kd (screen) (VAV2 (Homo sapiens) [33]) was 372 nM. The apparent Kd (screen) (PLCG2-NC (Homo sapiens) [34]) was 1350 nM and the apparent Kd (screen) (RASA1-N (Homo sapiens) [35]) was 638 nM.

For …pYMNRRRRH, the apparent Kd (screen) (PIK3R3-NC (Homo sapiens) [36]) is listed as 1460 nM, the apparent Kd (screen) (ABL2 (Homo sapiens) [37]) is listed as 296 nM and the apparent Kd (screen) (FGR (Homo sapiens) [38]) is listed as 1130 nM. The apparent Kd (screen) (PIK3R1-NC (Homo sapiens) [39]) was 1510 nM, the apparent Kd (screen) (YES1 (Homo sapiens) [40]) was 585 nM and the apparent Kd (screen) (PIK3R2-N (Homo sapiens) [41]) was 1350 nM. The apparent Kd (screen) (BLK (Homo sapiens)) was 1810 nM, the apparent Kd (screen) (ZAP70-NC (Homo sapiens)) was 1470 nM and the apparent Kd (screen) (RASA1-N (Homo sapiens) [42]) was 306 nM. The apparent Kd (screen) (PIK3R3-N (Homo sapiens) [43]) was 1380 nM.
